Measurements reported in publication PMC4866825, “The GIRK1 subunit potentiates G protein activation of cardiac GIRK1/4 hetero-tetramers” (eLife, 2016).
Blank lines part the entries; values can stand above or below the molecule they belong to.

What was measured:
[1] = target: GIRK1(N217D)/4 hetero-tetramers, purified and reconstituted into proteoliposomes and planar lipid bilayers (human) (UniProt P48549); conditions: scale: not given
[2] = target: GIRK1/4 hetero-tetramers, purified and reconstituted into proteoliposomes and planar lipid bilayers (human) (UniProt P48549)
[3] = target: GIRK4 homo-tetramers, purified and reconstituted into proteoliposomes and planar lipid bilayers (human) (UniProt P48544)
[4] = target: GIRK4 homo-tetramers, purified and reconstituted into proteoliposomes and planar lipid bilayers (human) (UniProt P48544); remark: listed apart in the source
[5] = target: the molecule itself; experiment: SEC; fluorescent size-exclusion chromatography (FSEC) of solubilized HEK293T cell lysate, Superose 6 10/300 GL; 50 mM HEPES-KOH pH 7.35, 150 mM KCl, 4% DM for solubilization; GFP fluorescence followed
[6] = target: T1, GIRK1-His (human full-length GIRK1 with C-terminal PreScission site, eGFP and deca-histidine tag) (human, UniProt P48549 1-501); experiment: SEC; purified GIRK1/4 after PreScission cleavage of eGFP and tags, Superose 6 10/300 GL in 20 mM Tris-HCl pH 7.5, 150 mM KCl, 0.2% DM, 20 mM DTT, 1 mM EDTA; fractions of the peak run on 12% SDS-PAGE, band intensities compared; conditions: both partners purified
T1 construct: G protein gated inward rectifier K+ channel subunit GIRK1, human, full length; also called His-tagged GIRK1; GIRK1 subunit; source: HEK293S GnTI- cells, BacMam transduced together with GIRK4-1D4 (1:1), solubilized in DM; not shown: eGFP, C-terminal, kept; His10, C-terminal, kept
T1 sequence (looked up): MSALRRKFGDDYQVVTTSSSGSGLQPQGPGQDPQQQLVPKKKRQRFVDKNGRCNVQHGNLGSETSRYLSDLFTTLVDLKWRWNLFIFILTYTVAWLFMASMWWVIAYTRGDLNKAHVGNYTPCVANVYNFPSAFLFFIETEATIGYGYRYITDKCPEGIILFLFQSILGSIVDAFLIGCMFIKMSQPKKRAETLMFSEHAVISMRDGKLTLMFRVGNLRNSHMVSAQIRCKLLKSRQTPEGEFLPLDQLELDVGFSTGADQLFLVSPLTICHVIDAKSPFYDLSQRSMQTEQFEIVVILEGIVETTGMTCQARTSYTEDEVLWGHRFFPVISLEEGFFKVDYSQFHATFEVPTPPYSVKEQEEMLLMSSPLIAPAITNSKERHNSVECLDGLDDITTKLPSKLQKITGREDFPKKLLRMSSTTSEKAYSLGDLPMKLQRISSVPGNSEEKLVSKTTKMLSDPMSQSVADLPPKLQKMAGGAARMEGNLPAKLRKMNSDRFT

- Kdb from a fit of the equilibrium gating model (b and θ4,4 fixed) to normalized planar lipid bilayer currents against Ni-NTA-lipid mole fraction at 0, 8 and 32 mM Na+ [1]: 0.0024
- b, cooperativity factor for Gβγ binding, from the fit of the equilibrium gating model to normalized planar lipid bilayer currents [2]: 0.6
- Kdb from a fit of the equilibrium gating model (two Na+ sites permanently occupied) to normalized planar lipid bilayer currents against Ni-NTA-lipid mole fraction at 0, 8 and 32 mM Na+ ([2]; scale: not given): 0.004
- b, cooperativity factor for Gβγ binding, from the fit of the equilibrium gating model to normalized planar lipid bilayer currents [3]: 0.6
- Kdb from a fit of the 25-state equilibrium gating model to normalized planar lipid bilayer currents against Ni-NTA-lipid mole fraction (membrane sGβγ-His10 density) at 0, 8 and 32 mM Na+ ([3]; scale: not given): 0.004
- normalized GIRK4 current in planar lipid bilayers at 0.001 Ni-NTA mole fraction, 0 to 32 mM Na+ (normalized current) [4]: 0.34
Molecule: soluble Gβγ with a deca-histidine-tag instead of its physiological lipid anchor (sGβγ-His10) (from UniProt P62873 1-340; P59768 1-71) (complex)

- stoichiometry N [6]: 1 GIRK4 per GIRK1 (2:2 in the tetramer)
B3: GIRK4-1D4 (human full-length GIRK4 with C-terminal PreScission site, eGFP and 1D4 peptide tag) (natural protein, UniProt P48544 1-419, looked up)
chain: MAGDSRNAMNQDMEIGVTPWDPKKIPKQARDYVPIATDRTRLLAEGKKPRQRYMEKSGKCNVHHGNVQETYRYLSDLFTTLVDLKWRFNLLVFTMVYTVTWLFFGFIWWLIAYIRGDLDHVGDQEWIPCVENLSGFVSAFLFSIETETTIGYGFRVITEKCPEGIILLLVQAILGSIVNAFMVGCMFVKISQPKKRAETLMFSNNAVISMRDEKLCLMFRVGDLRNSHIVEASIRAKLIKSRQTKEGEFIPLNQTDINVGFDTGDDRLFLVSPLIISHEINQKSPFWEMSQAQLHQEEFEVVVILEGMVEATGMTCQARSSYMDTEVLWGHRFTPVLTLEKGFYEVDYNTFHDTYETNTPSCCAKELAEMKREGRLLQYLPSPPLLGGCAEAGLDAEAEQNEEDEPKGLGGSREARGSV
notes: G protein gated inward rectifier K+ channel subunit GIRK4, human, full length; also called 1D4-tagged GIRK4; GIRK4 subunit; source: HEK293S GnTI- cells, BacMam transduced together with GIRK1-His (1:1), solubilized in DM; not shown: eGFP, C-terminal, kept; 1D4 peptide, C-terminal, kept

Continued, molecule first:

B1: GIRK1 subunit fused to GFP (GIRK1-His10-pEG BacMam construct) (natural protein, human, UniProt P48549 1-501, looked up)
chain: MSALRRKFGDDYQVVTTSSSGSGLQPQGPGQDPQQQLVPKKKRQRFVDKNGRCNVQHGNLGSETSRYLSDLFTTLVDLKWRWNLFIFILTYTVAWLFMASMWWVIAYTRGDLNKAHVGNYTPCVANVYNFPSAFLFFIETEATIGYGYRYITDKCPEGIILFLFQSILGSIVDAFLIGCMFIKMSQPKKRAETLMFSEHAVISMRDGKLTLMFRVGNLRNSHMVSAQIRCKLLKSRQTPEGEFLPLDQLELDVGFSTGADQLFLVSPLTICHVIDAKSPFYDLSQRSMQTEQFEIVVILEGIVETTGMTCQARTSYTEDEVLWGHRFFPVISLEEGFFKVDYSQFHATFEVPTPPYSVKEQEEMLLMSSPLIAPAITNSKERHNSVECLDGLDDITTKLPSKLQKITGREDFPKKLLRMSSTTSEKAYSLGDLPMKLQRISSVPGNSEEKLVSKTTKMLSDPMSQSVADLPPKLQKMAGGAARMEGNLPAKLRKMNSDRFT
notes: G protein gated inward rectifier K+ channel subunit GIRK1, human, full length; A PreScission protease cleavage site stands between GIRK1 and eGFP-His10; not cut for FSEC; also called GIRK1 homo-tetramers; source: HEK293T, transiently transfected, in solubilized cell lysate (4% DM); not shown: eGFP, C-terminal, kept; His10, C-terminal, kept
- stoichiometry N [5]: 4 subunits

B2: GIRK4 subunit fused to GFP (GIRK4-1D4-pEG BacMam construct) (natural protein, human, UniProt P48544 1-419, looked up)
chain: MAGDSRNAMNQDMEIGVTPWDPKKIPKQARDYVPIATDRTRLLAEGKKPRQRYMEKSGKCNVHHGNVQETYRYLSDLFTTLVDLKWRFNLLVFTMVYTVTWLFFGFIWWLIAYIRGDLDHVGDQEWIPCVENLSGFVSAFLFSIETETTIGYGFRVITEKCPEGIILLLVQAILGSIVNAFMVGCMFVKISQPKKRAETLMFSNNAVISMRDEKLCLMFRVGDLRNSHIVEASIRAKLIKSRQTKEGEFIPLNQTDINVGFDTGDDRLFLVSPLIISHEINQKSPFWEMSQAQLHQEEFEVVVILEGMVEATGMTCQARSSYMDTEVLWGHRFTPVLTLEKGFYEVDYNTFHDTYETNTPSCCAKELAEMKREGRLLQYLPSPPLLGGCAEAGLDAEAEQNEEDEPKGLGGSREARGSV
notes: G protein gated inward rectifier K+ channel subunit GIRK4, human, full length; A PreScission protease cleavage site stands between GIRK4 and eGFP-1D4; not cut for FSEC; also called GIRK4 homo-tetramers; source: HEK293T, transiently transfected, in solubilized cell lysate (4% DM); not shown: eGFP, C-terminal, kept; 1D4 peptide, C-terminal, kept
- stoichiometry N [5]: 4 subunits
